Data published in patent US20160002338A1 (Hoffmann-La Roche, published 2016).

Experiments:
[1] = biological target: T1, HER4 ECD-HRG complex (human, UniProt Q15303 26-651); experiment: SPR Biacore T100, antibody captured, 25 C
T1 construct: HER4 ECD preincubated with a 5-fold molar excess of Heregulin; also called HER-4-ECD-RG
T1 sequence 1: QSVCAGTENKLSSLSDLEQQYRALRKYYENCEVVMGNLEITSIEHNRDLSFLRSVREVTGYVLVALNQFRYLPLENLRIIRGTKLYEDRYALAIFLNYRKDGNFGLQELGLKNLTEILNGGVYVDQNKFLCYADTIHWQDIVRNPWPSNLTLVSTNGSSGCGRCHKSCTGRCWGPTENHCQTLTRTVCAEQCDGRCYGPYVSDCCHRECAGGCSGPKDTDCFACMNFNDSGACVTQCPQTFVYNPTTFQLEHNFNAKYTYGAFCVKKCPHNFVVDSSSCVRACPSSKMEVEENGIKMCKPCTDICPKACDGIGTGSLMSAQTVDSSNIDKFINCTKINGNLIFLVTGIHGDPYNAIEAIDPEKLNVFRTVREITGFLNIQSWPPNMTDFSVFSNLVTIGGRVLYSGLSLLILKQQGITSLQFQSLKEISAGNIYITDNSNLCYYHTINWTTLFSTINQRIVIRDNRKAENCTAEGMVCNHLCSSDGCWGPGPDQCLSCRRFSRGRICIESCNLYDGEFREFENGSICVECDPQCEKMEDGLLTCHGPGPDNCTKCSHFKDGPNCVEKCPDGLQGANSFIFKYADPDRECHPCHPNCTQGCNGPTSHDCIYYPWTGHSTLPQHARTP
T1 sequence 2: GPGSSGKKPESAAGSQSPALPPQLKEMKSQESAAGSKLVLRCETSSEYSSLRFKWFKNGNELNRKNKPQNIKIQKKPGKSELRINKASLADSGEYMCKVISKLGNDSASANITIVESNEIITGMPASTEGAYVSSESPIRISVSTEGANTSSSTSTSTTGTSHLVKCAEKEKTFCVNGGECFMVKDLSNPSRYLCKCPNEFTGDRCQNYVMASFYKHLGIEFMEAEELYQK
Method: (§1) A CM5 series sensor was mounted into the system and was normalized in HBS-ET buffer (10 mM HEPES pH 7.4, 150 mM NaCl, 3 mM EDTA, 0.005% w/v Tween 20) according to the manufacturer's instructions. The sample buffer was the system buffer supplemented with 1 mg/ml CMD (Carboxymethyldextran, Sigma #86524). The system operated at 25° C. 6500 RU RAM-Fcγ (relative units of Fcγ-fragment RamIgG, GE Healthcare) were immobilized according to the manufacturer's instructions using EDC/NHS chemistry on all four flow cells. The sensor was deactivated using 1M ethanolamine.
(§2) Analytes in solution were injected at different concentration steps of 0 nM, 1.1 nM, 3.7 nM, 11.1 nM, 33.1 nM and 90 nM for 3.5 min. The dissociation was monitored for 15 min. Where possible, kinetic signatures were evaluated according to a Langmuir fit.

[2] = biological target: T2, HER3 ECD-HRG complex (human, UniProt P21860 20-643); experiment: SPR Biacore T100, antibody captured, 25 C
T2 construct: also called Heregulin/Her-3 ECD
T2 sequence (P21860 20-643 limits assumed, one chain of several): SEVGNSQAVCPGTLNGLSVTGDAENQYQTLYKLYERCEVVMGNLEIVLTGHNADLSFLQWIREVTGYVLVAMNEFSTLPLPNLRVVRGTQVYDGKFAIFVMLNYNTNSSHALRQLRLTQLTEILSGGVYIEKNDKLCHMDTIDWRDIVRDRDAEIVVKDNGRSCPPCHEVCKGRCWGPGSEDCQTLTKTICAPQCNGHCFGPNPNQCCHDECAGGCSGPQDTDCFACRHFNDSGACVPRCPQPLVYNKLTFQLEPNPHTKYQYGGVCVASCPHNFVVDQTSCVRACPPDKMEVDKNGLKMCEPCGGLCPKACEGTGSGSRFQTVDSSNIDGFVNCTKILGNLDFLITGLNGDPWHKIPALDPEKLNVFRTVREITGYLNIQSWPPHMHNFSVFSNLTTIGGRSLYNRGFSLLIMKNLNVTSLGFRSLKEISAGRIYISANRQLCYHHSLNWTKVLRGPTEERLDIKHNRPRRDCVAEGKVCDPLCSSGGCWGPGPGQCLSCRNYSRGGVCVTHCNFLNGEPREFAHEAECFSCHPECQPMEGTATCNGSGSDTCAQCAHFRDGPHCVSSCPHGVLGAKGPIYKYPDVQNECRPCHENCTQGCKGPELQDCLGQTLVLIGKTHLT
Method: as §1, §2

[3] = biological target: T3, HER4 ECD binding epitope peptide VYNPTTFQLE (human); experiment: CelluSpots peptide array, 1 µg/mL antibody
T3 construct: the spotted peptides were longer
T3 peptide: VYNPTTFQLE

[4] = biological target: T4, HER3 ECD binding epitope peptide VYNKLTFQLEP (human); experiment: CelluSpots peptide array, 1 µg/mL antibody
T4 construct: the spotted peptides were longer
T4 peptide: VYNKLTFQLEP

B1: anti-HER3/HER4 antibody M-05-74 (antibody, V domains shown)
VH: QVQLQQSGAELAKPGASVKMSCKTSGYTLTDYWIHWVKQRPGQGLEWIGYINPYTGYTESNQKFKDKATLTADKSSNTAYIQLSSLTSEDSAVYYCARPYYYGDYWGQGTTLTVSS
VL: QIVLTQSPAIMSASPGERVTITCSASSSVSYMHWFQQKPGTSPKLLIYSTSNLASGVPARFSGSGSGTSYSLTISRMEAEDAATYYCQQRSSYPFTFGSGTKLEIK
notes: murine monoclonal antibody from hybridoma (supernatant or purified); also called M-074; M-5-74
[1]
  Binding Late BL: 349 RU
  Molar Ratio MR: 0.6
  ratio MR (+Heregulin)/MR (-Heregulin): 6
  ratio ka (Her4-ECD-HRG)/ka (Her4-ECD): 23.9
[2]
  Binding Late BL: 160 RU
  Molar Ratio MR: 0.6
  ratio MR (+Heregulin)/MR (-Heregulin): 3
  ratio ka (Her3-ECD-HRG)/ka (Her3-ECD): 4.85
[3]
  binding result: binds
[4]
  binding result: binds
